Measured values: US11111484B2, “Streptococcus bacteriophage lysins for detection and treatment of gram positive bacteria” (priority 2011, dated 2021)
“Also recorded” adds a separate entry of the source. Where two headings read alike, the source gives them in different places.

Key:
[1] = tested on: L. monocytogenes; assay: CFU studies, bactericidal effect; type: cell-based, Listeria monocytogenes; conditions: 128 μg/ml PlySs2, 60 mins
Procedure: Log-phase bacteria were resuspended in buffer A to an OD600 of 0.1 (=0.5 McFarland≈10^8 CFU/ml). PlySs2 was added at 128 μg/ml to polypropylene microtiter plates (Costar) in triplicate for each test organism. Plates were sealed and incubated at 37° C. with shaking every 5 minutes for 1 hour. After 1 hour of incubation, cells were serially diluted in 10-fold increments and plated on BHI. Triplicate controls for each strain were performed with buffer B replacing PlySs2.

[2] = tested on: E. coli; assay: MIC studies; type: cell-based, Escherichia coli; conditions: E. coli negative control
Procedure: The Wiegand, et al. protocol to determine minimum inhibitory concentrations was followed with adjustments detailed below. A final suspension of ≈5×10^5 cells/ml in MHB (or BHI for S. pyogenes) resulted after Sterile-filtered lysin or vehicle was added at the appropriate concentration. These tests were distributed within a 96-well microtiter plate. The MIC's were determined, in this experiment, by detection of pellet formation in the bottom of rounded polysterene plate wells. They were also corroborated colorimetrically with alamarBlue®.

[3] = tested on: S. pyogenes strain MGAS5005; assay: murine septicemia model, S. pyogenes infection alone; type: in vivo, FVB/NJ mice; conditions: PlySs2 2 mg
Procedure: The Rockefeller University's Institutional Animal Care and Use Committee approved all in vivo protocols. A systemic infection model described in Daniel, A. et al., was used to test for the in vivo efficacy of PlySs2 against multiple gram-positive bacteria. Briefly, 4-5 week old female FVB/NJ mice (weight range 15 to 20 g) were obtained from The Jackson Laboratory (Bar Harbor, Me.). After a period of acclimation, mice were injected intraperitoneally (IP) with 0.5 ml of mid log-phase (OD600 0.5) bacteria diluted with 5% hog gastric mucin (Sigma) in saline. Bacterial suspensions contained ˜5×10^5 CFU/ml of MW2, a PVL toxin-encoding MRSA strain, ˜1×10^7 of MGAS5005, an M1 serotype of Streptococcus pyogenes that is virulent in humans and mice (Musser), or a combination of both bacteria simultaneously at the above concentrations for the mix infection experiments. Actual bacterial inoculation titers were calculated by serial dilution and plating to Columbia blood agar plates for each experiment. Mice became bacteremic within one to three hours and contained MRSA and/or S. pyogenes in their organs (including spleen, liver, kidney, and heart/blood) ([50], and unpublished observations). […] The survival rate for each experimental group was monitored every 12 hours for the first 24 hours then every 24 hours up to 10 days post-infection. The data were statistically analyzed by Kaplan Meier Survival curves and a Logrank test performed for 95% confidence intervals using the Prism computer program (GraphPad Software; La Jolla, Calif.).
To determine if the broad lytic activity of PlySs2 could provide in vivo protection from infection with gram-positive pathogens, either alone or as a mixed infection, FVB/NJ mice were intraperitoneally injected with ˜5×10^5 CFU of MRSA strain MW2, ˜1×10^7 of S. pyogenes strain MGAS5005 and/or both bacteria simultaneously at the concentrations above. […] Mice were then monitored for survival over ten days. […]

[4] = tested on: S. pyogenes strains; assay: PlySs2 lytic activity against species and strains (FIG. 25); type: cell-based, Streptococcus pyogenes; conditions: S. pyogenes serotypes M1, M3, M4, M6, M18, M49, variant without M protein
Procedure: FIG. 25 provides PlySs2 activity against different species and strains. Log-phase cultures were exposed to 32 μg/ml PlySs2 for 60 minutes in phosphate buffer. The final OD600 of the treated samples were divided by the final OD600 of the untreated samples to generate the normalized values above. Multiple Staphylococci (including, but not limited to: MRSA, MSSA, and VISA), Streptococci, Listeria, Enterococci, and Bacilli were tested for susceptibility to PlySs2 activity. Escherichia and Pseudomonas were tested as Gram-negative controls.

[5] = tested on: vancomycin intermediate sensitivity Staphylococcus aureus (VISA) and vancomycin resistant Staphylococcus aureus (VRSA) strains; assay: in vitro tests / standard MIC analysis of staphylococci (FIG. 18); type: cell-based; conditions: comparable in vitro tests
Procedure: FIG. 18. PlySS2 was tested by standard MIC analysis for its ability to kill strains of staphylococci. Included in the testing were resistant staphylococci such as Vancomycin resistant (VRSA), Vancomycin intermediate (VISA) and methicillin resistant (MRSA) staphylococci. The three VRSA strains tested represent half of all known isolates.

[6] = tested on: S. pyogenes A486; assay: ΔPlySs1 OD600 lysis, 1 hr, optimal buffering conditions; type: cell-based, Streptococcus pyogenes
[7] = tested on: S. sobrinus 6715; assay: as above; type: cell-based, Streptococcus sobrinus
[8] = tested on: S. rattus BHT; assay: as above; type: cell-based, Streptococcus rattus
[9] = tested on: E. faecalis V583; assay: as above; type: cell-based, Enterococcus faecalis
[10] = tested on: B. anthracis ΔSterne; type: cell-based, Bacillus anthracis

B1: PlySs2: Streptococcus suis prophage lysin, SEQ ID NO:3; N-terminal CHAP domain and C-terminal SH3-type 5 domain (protein, listed as Streptococcus suis)
chain: MTTVNEALNNVRAQVGSGVSVGNGECYALASWYERMISPDATVGLGAGVGWVSGAIGDTISAKNIGSSYNWQANGWTVSTSGPFKAGQIVTLGATPGNPYGHVVIVEAVDGDRLTILEQNYGGKRYPVRNYYSAASYRQQVVHYITPPGTVAQSAPNLAGSRSYRETGTMTVTVDALNVRRAPNTSGEIVAVYKRGESFDYDTVIIDVNGYVWVSYIGGSGKRNYVATGATKDGKRFGNAWGTFK
- reduction in CFU counts [1]: dramatically reduced
- minimum inhibitory concentration (MIC) [2]: too high to calculate; also recorded: immeasurable
- mice died at day three (dead/total) [3]: 1/16
- survival over 10 days ([3]; PlyC 1 mg): 94%
- survival over 10 days (mice surviving/total) ([3]; PlyC 1 mg): 15/16
- lytic activity [4]: had activity against all strains of S. pyogenes
- effectiveness against VISA and VRSA [5]: similarly effective

B2: ΔPlySs1: truncated PlySs1 lysin, SEQ ID NO:2, N-terminal 254 amino acids: only N-terminal enzymatic and central binding domains (protein, listed as Streptococcus suis)
chain: MTINLETSIRWMSDRVGKVSYSMDYRNGPNSYDCSSAVYYALMAGGAISAGWAVNTEYMHDWLIRNGYVLVAENKPFNAQRHDVCILGKRGYSSGAGGHVVIFVDNVNVIHCNYARNGISIDNYNQVHRGMYYYLYRPANQPSISNKSLDQLVKETLAGVHGNGDTRKASLGSQYEAVMAVINGKASASEKSDEELAREVLAGKHGAGEDRKRSLGPRYEPVQAKVNELLKAKEKPSETAKNEPQTVQFKEDGDL
- lysis value after 1 hr (treated/untreated OD600 ratio) ([6]; 6.5 μg/ml): 0.12
- lysis value after 1 hr (treated/untreated OD600 ratio) ([6]; 13 μg/ml): 0.13
- lysis value after 1 hr (treated/untreated OD600 ratio) ([6]; 30 μg/ml): 0.13
- lysis value after 1 hr (treated/untreated OD600 ratio) ([6]; 65 μg/ml): 0.11
- lysis value after 1 hr (treated/untreated OD600 ratio) ([6]; 130 μg/ml): 0.10
- lysis value after 1 hr (treated/untreated OD600 ratio) ([7]; 6.5 μg/ml): 0.64
- lysis value after 1 hr (treated/untreated OD600 ratio) ([7]; 13 μg/ml): 0.48
- lysis value after 1 hr (treated/untreated OD600 ratio) ([7]; 30 μg/ml): 0.39
- lysis value after 1 hr (treated/untreated OD600 ratio) ([7]; 65 μg/ml): 0.32
- lysis value after 1 hr (treated/untreated OD600 ratio) ([7]; 130 μg/ml): 0.23
- lysis value after 1 hr (treated/untreated OD600 ratio) ([8]; 6.5 μg/ml): 0.82
- lysis value after 1 hr (treated/untreated OD600 ratio) ([8]; 13 μg/ml): 0.84
- lysis value after 1 hr (treated/untreated OD600 ratio) ([8]; 30 μg/ml): 0.82
- lysis value after 1 hr (treated/untreated OD600 ratio) ([8]; 65 μg/ml): 0.83
- lysis value after 1 hr (treated/untreated OD600 ratio) ([8]; 130 μg/ml): 0.79
- lysis value after 1 hr (treated/untreated OD600 ratio) ([9]; 6.5 μg/ml): 0.98
- lysis value after 1 hr (treated/untreated OD600 ratio) ([9]; 13 μg/ml): 0.93
- lysis value after 1 hr (treated/untreated OD600 ratio) ([9]; 30 μg/ml): 0.84
- lysis value after 1 hr (treated/untreated OD600 ratio) ([9]; 65 μg/ml): 0.71
- lysis value after 1 hr (treated/untreated OD600 ratio) ([9]; 130 μg/ml): 0.52
- lysis value after 1 hr (treated/untreated OD600 ratio) ([10]; 6.5 μg/ml): 1.02
- lysis value after 1 hr (treated/untreated OD600 ratio) ([10]; 30 μg/ml): 1.02
- lysis value after 1 hr (treated/untreated OD600 ratio) ([10]; 65 μg/ml): 0.98
- lysis value after 1 hr (treated/untreated OD600 ratio) ([10]; 130 μg/ml): 0.90
